Source: patent US20050100554A1 (published 2005)

How the values were obtained:
[1] = molecular target: T1, Human Papillomavirus 1a L2 (Human Papillomavirus 1a, UniProt P03105 1-507); experiment: Y2H; INT ID 451
T1 construct: also called HPV 1a L2; cbe_252041
T1 sequence: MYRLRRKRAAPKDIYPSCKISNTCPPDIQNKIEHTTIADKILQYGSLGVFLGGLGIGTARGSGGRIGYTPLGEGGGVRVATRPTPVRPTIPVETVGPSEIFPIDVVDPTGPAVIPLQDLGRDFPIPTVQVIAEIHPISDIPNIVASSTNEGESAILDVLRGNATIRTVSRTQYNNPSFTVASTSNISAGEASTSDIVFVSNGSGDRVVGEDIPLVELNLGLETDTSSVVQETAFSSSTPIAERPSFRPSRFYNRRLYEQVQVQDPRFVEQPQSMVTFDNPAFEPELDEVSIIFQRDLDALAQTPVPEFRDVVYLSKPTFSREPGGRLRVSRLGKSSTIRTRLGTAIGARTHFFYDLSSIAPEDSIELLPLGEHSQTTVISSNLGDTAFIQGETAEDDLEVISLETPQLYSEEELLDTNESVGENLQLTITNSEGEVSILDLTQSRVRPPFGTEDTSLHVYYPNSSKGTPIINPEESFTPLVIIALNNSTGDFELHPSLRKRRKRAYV

[2] = molecular target: T2, hypothetical protein FLJ20259 (human, UniProt Q2TAL8 1-776); experiment: Y2H; INT ID 411
T2 construct: also called cbe_1469980
T2 sequence: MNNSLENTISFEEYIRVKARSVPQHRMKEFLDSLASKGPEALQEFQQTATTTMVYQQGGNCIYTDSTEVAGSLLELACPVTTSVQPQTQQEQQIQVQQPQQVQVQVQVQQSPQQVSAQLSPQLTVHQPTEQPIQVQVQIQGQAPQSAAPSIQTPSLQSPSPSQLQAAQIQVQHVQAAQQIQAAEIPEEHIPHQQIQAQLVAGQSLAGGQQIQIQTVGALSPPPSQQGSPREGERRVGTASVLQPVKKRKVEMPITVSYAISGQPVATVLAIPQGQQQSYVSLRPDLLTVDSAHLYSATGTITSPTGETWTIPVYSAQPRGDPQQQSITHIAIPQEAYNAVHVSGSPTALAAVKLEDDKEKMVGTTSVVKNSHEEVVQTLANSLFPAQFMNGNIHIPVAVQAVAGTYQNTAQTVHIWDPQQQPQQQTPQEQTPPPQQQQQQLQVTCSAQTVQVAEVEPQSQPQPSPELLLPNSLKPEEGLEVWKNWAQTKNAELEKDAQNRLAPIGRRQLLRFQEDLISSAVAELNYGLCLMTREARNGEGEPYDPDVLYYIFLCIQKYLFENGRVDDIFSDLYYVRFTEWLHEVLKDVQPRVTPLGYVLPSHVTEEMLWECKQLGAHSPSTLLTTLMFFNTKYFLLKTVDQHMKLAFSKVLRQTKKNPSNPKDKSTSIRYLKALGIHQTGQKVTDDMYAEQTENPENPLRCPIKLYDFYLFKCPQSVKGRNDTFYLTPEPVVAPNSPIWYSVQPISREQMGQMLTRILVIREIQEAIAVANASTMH

ribosomal protein S10 = molecular target: T3, ribosomal protein S10 (human, UniProt P46783 1-165); experiment: Y2H; INT ID 412
T3 construct: also called RPS10; cbe_2826346

[3] = molecular target: T4, ankylosis, progressive homolog (mouse) (human, UniProt Q9HCJ1 1-492); experiment: Y2H; INT ID 417
T4 construct: also called ANKH; cbe_3641816
T4 sequence (Q9HCJ1 whole entry): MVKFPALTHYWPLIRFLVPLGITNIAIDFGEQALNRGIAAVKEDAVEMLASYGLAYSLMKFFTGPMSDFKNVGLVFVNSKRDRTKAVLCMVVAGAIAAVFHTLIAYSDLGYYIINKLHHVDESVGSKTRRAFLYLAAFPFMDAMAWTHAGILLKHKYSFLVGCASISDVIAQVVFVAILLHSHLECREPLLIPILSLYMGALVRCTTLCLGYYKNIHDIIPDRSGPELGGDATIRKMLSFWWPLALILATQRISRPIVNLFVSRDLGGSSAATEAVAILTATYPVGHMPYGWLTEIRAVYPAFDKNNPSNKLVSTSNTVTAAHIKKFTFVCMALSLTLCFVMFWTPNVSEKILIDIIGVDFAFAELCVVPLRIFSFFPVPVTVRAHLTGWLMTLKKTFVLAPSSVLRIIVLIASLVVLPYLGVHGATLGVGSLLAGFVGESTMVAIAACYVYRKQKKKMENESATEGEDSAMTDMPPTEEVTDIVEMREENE

[4] = molecular target: T5, testis-specific protein NYD-TSP1 (human, UniProt Q9BXG8 1-430); experiment: Y2H; INT ID 418
T5 construct: also called Hs.98226; cbe_3826540
T5 sequence: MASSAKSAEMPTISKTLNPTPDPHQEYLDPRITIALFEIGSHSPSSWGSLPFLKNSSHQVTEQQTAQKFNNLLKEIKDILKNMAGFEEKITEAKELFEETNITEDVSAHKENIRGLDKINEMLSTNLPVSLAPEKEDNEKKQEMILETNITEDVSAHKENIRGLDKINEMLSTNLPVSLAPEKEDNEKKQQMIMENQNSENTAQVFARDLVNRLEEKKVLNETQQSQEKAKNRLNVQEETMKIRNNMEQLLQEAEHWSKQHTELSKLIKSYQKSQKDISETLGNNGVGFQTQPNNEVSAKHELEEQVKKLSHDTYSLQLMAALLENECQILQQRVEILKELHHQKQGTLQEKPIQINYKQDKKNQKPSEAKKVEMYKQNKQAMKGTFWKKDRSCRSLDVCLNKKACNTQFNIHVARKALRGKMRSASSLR

GNB2L1 = molecular target: T6, GNB2L1 (human, UniProt P63244 1-317); experiment: Y2H; INT ID 420
T6 construct: also called cbe_4269834

[5] = molecular target: T1, Human Papillomavirus 1a L2; experiment: Y2H; INT ID 446

B1: RIL (other)
chain: MPHSVTLRGPSPWGFRLVGGRDFSAPLTISRVHAGSKAALAALCPGDLIQAINGESTELMTHLEAQNRIKGCHDHLTLSVSRPEGRSWPSAPDDSKAQAHRIHIDPEIQDGSPTTSRRPSGTGTGPEDGRPSLGSPYGQPPRFPVPHNGSSEATLPAQMSTLHVSPPPSADPARGLPRSRDCRVDLGSEVYRMLREPAEPVAAEPKQSGSFRYLQGMLEAGEGGDWPGPGGPRNLKPTASKLGAPLSGLQGLPECTRCGHGIVGTIVKARDKLYHPECFMCSDCGLNLKQRGYFFLDERLYCESHAKARVKPPEGYDVVAVYPNAKVELV
notes: also called cbe_4269628
- binding result [1]: binds

B2: Human Papillomavirus 1a E2 (other)
chain: MENLSSRLDLLQEQLMNLYEQDSKLIEDQIKQWNLIRQEQVLFHFARKNGVMRIGLQAVPSLASSQEKAKTAIEMVLHLESLKDSPYGTEDWSLQDTSRELFLAPPAGTFKKSGSTLEVTYDNNPDNQTRHTIWNHVYYQNGDDVWRKVSSGVDAVGVYYLEHDGYKNYYVLFAEEASKYSTTGQYAVNYRGKRFTNVMSSTSSPRAAGAPAVHSDYPTLSESDTAQQSTSIDYTELPGQGETSQVRQRQQKTPVRRRPYGRRRSRSPRGGGRREGESTPSRTPGSVPSARDVGSIHTTPQKGHSSRLRRLLQEAWDPPVVCVKGGANQLKCLRYRLKASTQVDFDSISTTWHWTDRKNTERIGSARMLVKFIDEAQREKFLERVALPRSVSVFLGQFNGS
notes: also called HPV 1a E2; cbe_251917
- binding result [2]: binds
- binding result (ribosomal protein S10): binds
- binding result [3]: binds
- binding result [4]: binds
- binding result (GNB2L1): binds

B3: Prey1053670 (other)
chain: MSSDERKAFLQFTTGCSTLPPGGLANLHPRLTVVRKVDATDASYPSVNTCVHYLKLPEYSSEEIMRERLLAATMEKGFHLN
notes: also called Homo sapiens, Similar to CG5604 gene product, clone MGC:11330; cbe_3606990
- binding result [5]: binds
